Laboratory results from the supplement of paper PMC10567573.
± gives the standard deviation.

Assay: protein stability index of a GFP-peptide fusion (GPS, HEK-293T) (PSI 1-6); higher = more stable
[1] = treatment: DMSO, c terminus: a fixed tail appended
[2] = treatment: MLN4924 1 uM, 8 h, c terminus: a fixed tail appended
[3] = treatment: DMSO, c terminus: native
[4] = treatment: MLN4924 1 uM, 8 h, c terminus: native
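Note: 24-mer peptide tiles fused after GFP, lentivirally expressed, FACS-sorted into six equal bins by GFP/DsRed ratio, decoded by Illumina sequencing, PSI is the read-weighted mean bin number.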

| Sequence | protein stability index [1] | protein stability index [2] | protein stability index [3] | protein stability index [4] |
| --- | --- | --- | --- | --- |
| WPKLCPCLRSGIGSSQALGPSPPL [MYCL] | 2.46 ± 0.41 | 2.47 ± 0.14 |  |  |
| HMLLNTTLNIKETDSKELSMAKEV [ZBED1] | 4.26 ± 0.17 | 4.35 ± 0.2 |  |  |
| RVMPTQEVQELPIPSKLLEFLSYR [WSB1] | 2.94 ± 0.26 | 2.95 ± 0.24 |  |  |
| RSQKHKERIRLLRQKREAAARKKY [C18orf25] | 4.17 ± 0.34 | 4.36 ± 0.31 |  |  |
| HLEVKFMNPYNAVLTKKFQVTMRG [FBXO39] | 2.17 ± 0.22 | 2.28 ± 0.22 |  |  |
| EEYPGITAEDSNDIYILPSDNSGQ [BCL2L13] | 5.25 ± 0.18 | 5.14 ± 0.21 |  |  |
| IDAVPVDENLFTGEDLDELEEELN [ZC3H15] | 5.53 ± 0.21 | 5.51 ± 0.19 |  |  |
| ALAVKAGHGYDSKKQQELTAAVLG [ZBED1] | 3.82 ± 0.24 | 3.87 ± 0.25 |  |  |
| ASCSKNCTNSPAIVRFSGQSRGVP [FBXO34] | 3.68 ± 0.27 | 3.63 ± 0.25 |  |  |
| FKSLFGSIGDIESCKLVRDKITGQ [ELAVL3] | 2.87 ± 0.38 | 2.56 ± 0.15 |  |  |
| AFASTCLLSRFSVGIFHLMQIAVP [TMEM175] | 3.02 ± 0.29 | 3 ± 0.22 |  |  |
| CHSESGKSRLVQLPPVAVRSLQDL [PCMTD2] | 3.44 ± 0.33 | 3.28 ± 0.28 |  |  |
| ISFGQLSDRFGRKKVYLTGFALDI [SLC22A15] | 2.97 ± 0.43 | 2.73 ± 0.59 |  |  |
| NDTNSFTVDCEPSDLFRLQEYNIP [CDS2] | 3.65 ± 0.16 | 3.74 ± 0.21 |  |  |
| GPHPKSKIENGYPLHAPEAYFPYF [CDC14A] | 2.53 ± 0.21 | 2.69 ± 0.13 |  |  |
| QSQLICILKRRSDEALERCQILEL [CCDC89] | 2.52 ± 0.14 | 2.04 ± 0.44 |  |  |
| EVSQHIKMRMGGRVDFEEFVELIG [CABP4] | 2.44 ± 0.12 | 3 ± 0.44 |  |  |
| TNKMKSPETKQRKLSPLRLSVSNN [KMT2E] | 4.45 ± 0.18 | 4.41 ± 0.083 |  |  |
| KEMARKVIEHCSNFKEENMDTSR [ZER1] |  |  | 3.77 ± 0.32 | 4.16 ± 0.61 |
| ELVLEQQLDREAQARHQLVLTAVD [PCDHGC5] | 3.99 ± 0.15 | 4.103 ± 0.038 |  |  |
| CRREAFRRLGNGVSDDLSSEEDGE [PHTF1] | 4.94 ± 0.19 | 4.77 ± 0.13 |  |  |
| ASDYFKAMFTGGMKEQDLMCIKLH [KLHL13] | 2.13 ± 0.17 | 2.13 ± 0.25 |  |  |

| Sequence | protein stability index [1] | protein stability index [2] | protein stability index [3] | protein stability index [4] |
| --- | --- | --- | --- | --- |
| YQLLATHVPTVWAIDQYRVCQEVL [RHOBTB1] | 2.61 ± 0.59 | 2.38 ± 0.47 |  |  |
| CHLFSTYVASHKIEKEEQEKKRKE [ACBD3] | 4.41 ± 0.41 | 4.43 ± 0.21 |  |  |
| HRTHTGERPYGCDECEKAYFYMSC [ZNF649] | 2.68 ± 0.17 | 2.54 ± 0.26 |  |  |
| CTACGSVLEDNIIVSEVQFVESSG [BRF1] | 3.42 ± 0.57 | 3.74 ± 0.35 |  |  |
| TGPLQPQPKKPEDEPQETAYRTQV [PKD2L1] | 5.11 ± 0.45 | 5.3 ± 0.2 |  |  |
| TSPYSDPVVSMDLDPQPITDEEEG [PTPRD] | 5.63 ± 0.19 | 5.61 ± 0.095 |  |  |
| EPHKCPECGKRFLRSSDLYRHQRL [ZNF449] | 3.96 ± 0.36 | 4.39 ± 0.47 |  |  |
| SWEEGMKVFEELLLDADWSINAGS [CRY1] | 2.84 ± 0.22 | 2.89 ± 0.33 |  |  |
| SLSVFTEPNRHFYREMQSFSEDI [FBXO33] |  |  | 3.26 ± 0.32 | 3.33 ± 0.27 |
| HSGEKPFICKECGKAYGWCSELIR [ZNF232] | 2.22 ± 0.25 | 2.72 ± 0.66 |  |  |
| KSPTGLKLKNDTENHQPVSLSDLE [ZNF75A] | 5.3 ± 0.23 | 5.188 ± 0.043 |  |  |
| LGETKAYVFFEKDFGDMHSYVRSR [TRIB1] | 2.62 ± 0.42 | 2.37 ± 0.11 |  |  |
| FPTDAPYPTTLGKDRECQSQSLAL [ZNF8] | 4.07 ± 0.15 | 4.05 ± 0.31 |  |  |
| ISAHKPLLISSCDWMAAMFGGPFV [RHOBTB2] | 2.51 ± 0.57 | 2.44 ± 0.2 |  |  |
| EIPDQNIDVEALQVAFGSLYRDDV [GMCL1] | 4.58 ± 0.32 | 4.64 ± 0.094 |  |  |
| VSGSPVTQNHAASALPTGSPKRGT [FBF1] | 5.27 ± 0.16 | 5.22 ± 0.25 |  |  |
| PSLGPALSTGPRGLCAMPQTGDAF [VENTX] | 3.64 ± 0.089 | 3.6 ± 0.17 |  |  |
| QTMLSHYRPFYVNKGNGIGSNEAP [TRIM29] | 2.97 ± 0.27 | 3.17 ± 0.2 |  |  |
| VCGHTLCESCVDLLFVRGAGNCPE [MNAT1] | 2.64 ± 0.42 | 2.87 ± 0.53 |  |  |
| LGESKEHMESRMVTETEETQEKKA [SDE2] | 5.51 ± 0.3 | 5.75 ± 0.12 |  |  |
| GSVALGPVCPTVCPPGGIHQVTVN [KRT71] | 3.55 ± 0.34 | 3.52 ± 0.28 |  |  |
| GPPGSPGRAGAVGTPGERGPPGPP [EMID1] | 5.32 ± 0.84 | 4.81 ± 0.84 |  |  |

| Sequence | protein stability index [1] | protein stability index [2] | protein stability index [3] | protein stability index [4] |
| --- | --- | --- | --- | --- |
| WGVVSHSFPATLETQEQDVDLVQK [MMP1] | 4.58 ± 0.34 | 4.73 ± 0.43 |  |  |
| LNEKRTFFHLSALKGYLYAVGGRN [KLHL13] | 2.49 ± 0.68 | 2.33 ± 0.46 |  |  |
| EILTLLQGVHQGAGFQDIPKRCLK [TSN] | 2.08 ± 0.3 | 2.41 ± 0.49 |  |  |
| HCNLFVYSSSKGSLRLCDMRAAAL [PPP2R2C] | 2.6 ± 0.69 | 2.63 ± 0.35 |  |  |
| IMNEKCVVENAEKILGYLNTNVLS [SLC6A17] | 2.92 ± 0.35 | 2.47 ± 0.5 |  |  |
| NSELVQSGKSEISELRRTMQALEI [KRT17] | 3.94 ± 0.18 | 3.94 ± 0.42 |  |  |
| LPGSYLSSECHTSGFVGSGGWFCE [KRT36] | 2.15 ± 0.39 | 2.24 ± 0.26 |  |  |
| TAELVVIEDAAEPKEPAPPNGSAA [PALM] | 5.39 ± 0.14 | 5.47 ± 0.16 |  |  |
| KGKFSTDTKGKPTSRTQVYKPPAL [ZC2HC1A] | 3.77 ± 0.19 | 3.8 ± 0.15 |  |  |
| VLITVEDVNDNSPELTITSLFSPV [PCDHGA10] | 2.3 ± 0.49 | 2.07 ± 0.19 |  |  |
| DFGLAIEVQGDQQAWFGFAGTPGY [CAMK2B] | 2.26 ± 0.35 | 2.15 ± 0.3 |  |  |
| LLQLSDACRFQEDQEMARDLVERA [TCF25] | 3.64 ± 0.34 | 3.77 ± 0.52 |  |  |
| HLVPVIEMWADQLTSLKDLYKSLK [CEP70] | 2.47 ± 0.5 | 2.32 ± 0.39 |  |  |
| ANETYENNFDNLDFDLDLVPWESD [ATF6] | 5.07 ± 0.24 | 4.82 ± 0.23 |  |  |
| GFWRIDPQYAERLLSGAFKKRRLP [FOXJ1] | 2.56 ± 0.12 | 2.4 ± 0.37 |  |  |
| QEHQSALEEAKQPKNDNVVIPECA [SMOC2] | 5.51 ± 0.23 | 5.46 ± 0.27 |  |  |
| KTSELLVRKWRVKSALGAMGQWQL [DPCD] | 2.56 ± 0.76 | 2.47 ± 0.41 |  |  |
| RHSYQVYRQPIPVQELVLEDLQDG [NET1] | 4.38 ± 0.083 | 4.24 ± 0.24 |  |  |
| GARQISYSIPEELEKGSFVGNISK [PCDHGA10] | 4.13 ± 0.19 | 4.23 ± 0.17 |  |  |
| PEASHLRFRRFRFQEAAGPREALS [ZNF263] | 3.15 ± 0.42 | 3.31 ± 0.51 |  |  |
| RAEPYPTSRFGSQCMQPNNIMGIE [NR2F2] | 2.84 ± 0.15 | 2.81 ± 0.18 |  |  |
